{"source": "patent US11078465B2", "about": "“Alcohol dehydrogenase mutant and application thereof in synthesis of diaryl chiral alcohols” (Jiangnan University, priority 2018, dated 2021)", "molecules": {"B1": {"name": "E214Q/S237C: glutamine for glutamate at position 214 and cysteine for serine at position 237 of SEQ ID No. 2 (protein)", "chain": "MSVLISGASGYIAKHIVRVLLEQNYKVIGTVRSQDKADKLLKQYNNPNLSYEIVPEIANLDAFDDIFKKHGKEIKYVIHAASPVNFGAKDLEKDLVIPAINGTKNMFEAIKKYAPDTVERVVMTASYASIMTPHRQNDPTLTLDEETWNPVTEENAYENVFTAYCASKTFAEKEAWKFVKENSDAVKFKLTTIHPSFVFGPQNFDEDVTKKLNQTCEIINGLLHAPFDTKVEKTHFCQFIDVRDVAKTHVLGFQKDELINQRLLLCNGAFSQQDIVNVFNEDFPELKGQFPPEDKDTDLNKGVTGCKIDNEKTKKLLAFEFTPFHKTIHDTVYQILHKEGRV", "modifications": "Protein translated from synthetic DNA"}, "B2": {"name": "E214N/S237C: asparagine for glutamate at position 214 and cysteine for serine at position 237 of SEQ ID No. 2 (protein)", "chain": "B1 chain with Q214N", "modifications": "Protein translated from synthetic DNA"}}, "type_in_all_cases": "biochemical", "key": {"[1]": {"test": "Kinetic analysis of alcohol dehydrogenase and mutants (NADPH oxidation, 340 nm, double reciprocal curve)", "settings": "substrate CPMK", "method": "(§1) Adopting a total reaction system of 200 μL, including: 1.0 mM NADPH, 1.0 mM substrate CPMK and sodium phosphate buffer (PBS, 100 mM, pH 7.0), fully and evenly mixing, maintaining at 30° C. for 2 min, adding an appropriate amount of enzyme solution, and detecting the change in light absorption at 340 nm.\n(§2) The enzyme activity was calculated by the following formula: Enzyme activity (U)=EW×V×10^3/(6220×I);\n(§3) in the formula, EW is the change in absorbance at 340 nm in 1 min; V is the volume of a reaction solution in mL; 6220 is the molar extinction coefficient of NADPH in L/mol·cm); and 1 is the optical path distance in cm. One activity unit (U) corresponds to the amount of enzyme required to catalyze the oxidation of 1 μmol NADPH per minute under the above conditions.\nA column used for purification was a nickel affinity column HisTrap FF crude, and purification was achieved through affinity chromatography using a histidine tag on recombinant protein. The nickel column was equilibrated with a solution A first, a crude enzyme solution was loaded, a penetrating peak was further eluted off using the solution A, and after equilibrium, a solution B (20 mM sodium phosphate, 500 mM NaCl, and 1000 mM imidazole, pH 7.4) was used for gradient elution to elute off the recombinant protein bound to the nickel column, so as to obtain the recombinant alcohol dehydrogenase mutant. The purified protein was subjected to activity measurement (CPMK as substrate, and NADPH as coenzyme) and SDS-PAGE analysis. […] The purified alcohol dehydrogenase protein was then replaced into a Tris-HCl (100 mM, pH 7.0) buffer using a Hi Trap Desalting column (GE Healthcare).\nThe activity of KpADH at different substrate concentrations and coenzyme concentrations was determined, and a double reciprocal curve was made based on the reciprocal of activity and substrate concentration to calculate kinetic parameters."}, "[2]": {"test": "Stereoselectivity on different substrates", "settings": "for Stereoselectivity (ee): configuration in brackets", "method": "(§4) In an embodiment of the present disclosure, a chromatographic analysis method is as follows: 100 μL of reactant liquid is taken, 500 μL of ethyl acetate is added, shaking is performed for 1-2 min, centrifugation is performed at 12,000 rpm for 2-5 min, supernatant liquid is taken into a centrifuge tube, after an organic phase naturally volatilizes completely, 500 μL of chromatographically pure ethanol is added, and chiral liquid chromatography and gas chromatography are performed to analyze the transformation rate and the ee value.\n(§5) Method for determining optical purity ee:\n(§6) As: molar concentration of (S)-CPMA obtained by liquid chromatography; and AR: molar concentration of (R)-CPMA obtained by liquid chromatography.\n(§7) The reduction on prochiral carbonyl compounds by the alcohol dehydrogenase mutants obtained in Example 3 was studied. The pro-chiral carbonyl compounds include (4-chlorophenyl)-(pyridin-2-yl)-methanone (CPMK), phenyl-(pyridin-2-yl)-methanone, (4-chlorophenyl)-(phenyl)-methanone, (4-bromophenyl)(phenyl)methanone, (4-fluorophenyl)(phenyl)methanone, (4-methoxyphenyl)-(phenyl)-methanone, (4-nitrophenyl)(phenyl)methanone, 1-(pyridin-2-yl)ethanone, acetophenone, 4′-Chloroacetophenone, 4-chlorophenacyl chloride, ethyl 2-oxo-4-phenylbutanoate (OPBE), ethyl 4-chloro-3-oxobutanoate, and methyl 2-oxo-2-phenylacetate.\nAll the products above were recrystallized from ethyl acetate and gave more than 99.9% optical purity."}, "[3]": {"test": "Substrate specificity, specific activity", "method": "as §1, §2, §3, §7"}, "[4]": {"test": "Stereoselectivity on different substrates", "settings": "configuration in brackets", "method": "as §4, §5, §6, §7"}, "[5]": {"test": "Stereoselectivity (ee) of CPMK reduction, chiral liquid chromatography", "settings": "for e.e.: product configuration in brackets", "method": "as §4, §5, §6"}, "[6]": {"settings": "substrate [drawing 10], acetophenone"}, "[7]": {"settings": "substrate [drawing 11], 4-chloroacetophenone"}, "[8]": {"settings": "substrate [drawing 12], 4-chlorobenzoyl chloride"}, "[9]": {"settings": "substrate [drawing 16], (4-bromophenyl)-(phenyl)-methanone"}, "[10]": {"settings": "substrate [drawing 17], p-nitrobenzophenone"}, "[11]": {"settings": "substrate [drawing 6], 4-chlorophenacyl chloride"}, "[12]": {"settings": "substrate [drawing 9], ethyl 4-chloro-3-oxobutanoate"}, "[13]": {"settings": "substrate [drawing 14], likely CPMK (values partly match Table 4)"}}, "note": "Positions count from the first letter of the chain named. Names may count otherwise. “Also recorded” adds a separate entry of the source."}
{"molecule": "B1", "values": [{"measurement": "Kcat", "setting": "[1]", "value": "7.06 ± 0.63", "unit": "s⁻¹"}, {"measurement": "Km", "setting": "[1]", "value": "550 ± 20", "unit": "µM"}, {"measurement": "Vmax", "setting": "[1]", "value": "10.59 ± 0.16", "unit": "µM/min/mg"}, {"measurement": "Stereoselectivity (ee)", "setting": "[2]; [6]", "value": "96.5 (R)"}, {"measurement": "Stereoselectivity (ee)", "setting": "[2]; [7]", "value": "93.5 (R)"}, {"measurement": "Stereoselectivity (ee)", "setting": "[2]; [8]", "value": "97.6 (R)"}, {"measurement": "Stereoselectivity (ee)", "setting": "[2]; [9]", "value": "92.6 (R)"}, {"measurement": "Stereoselectivity (ee)", "setting": "[2]; [10]", "value": "93.3 (R)"}, {"measurement": "specific activity", "setting": "[3]; substrate [drawing 1]", "value": 0.22, "unit": "U/mg"}, {"measurement": "specific activity", "setting": "[3]; substrate [drawing 2]", "value": 0.12, "unit": "U/mg"}, {"measurement": "specific activity", "setting": "[3]; substrate [drawing 3]", "value": 0.09, "unit": "U/mg"}, {"measurement": "specific activity", "setting": "[3]; substrate [drawing 4]", "value": 5.65, "unit": "U/mg"}, {"measurement": "specific activity", "setting": "[3]; substrate [drawing 5]", "value": 3.65, "unit": "U/mg"}, {"measurement": "specific activity", "setting": "[3]; [11]", "value": 10.25, "unit": "U/mg"}, {"measurement": "specific activity", "setting": "[3]; substrate [drawing 7]", "value": 9.89, "unit": "U/mg"}, {"measurement": "specific activity", "setting": "[3]; substrate [drawing 8]", "value": 22.65, "unit": "U/mg"}, {"measurement": "specific activity", "setting": "[3]; [12]", "value": 2.65, "unit": "U/mg"}, {"measurement": "Stereoselectivity (ee)", "setting": "[4]; substrate [drawing 13]", "value": "56.6 (R)"}, {"measurement": "Stereoselectivity (ee)", "setting": "[4]; [13]", "value": "44.6 (S)"}, {"measurement": "Stereoselectivity (ee)", "setting": "[4]; substrate [drawing 15]", "value": "88.6 (R)"}, {"measurement": "Stereoselectivity (ee)", "setting": "[4]; substrate [drawing 18]", "value": "90.6 (R)"}, {"measurement": "configuration of product / stereoselectivity in words", "setting": "[5]", "value": "inversion from the R configuration to the S configuration; also recorded: (S)-CPMA"}, {"measurement": "e.e.", "setting": "[5]", "value": "44.6 (S)"}]}
{"molecule": "B2", "values": [{"measurement": "Kcat", "setting": "[1]", "value": "5.87 ± 0.13", "unit": "s⁻¹"}, {"measurement": "Km", "setting": "[1]", "value": "220 ± 20", "unit": "µM"}, {"measurement": "Vmax", "setting": "[1]", "value": "8.80 ± 0.20", "unit": "µM/min/mg"}, {"measurement": "Stereoselectivity (ee)", "setting": "[2]; [6]", "value": "99.0 (R)"}, {"measurement": "Stereoselectivity (ee)", "setting": "[2]; [7]", "value": "97.4 (R)"}, {"measurement": "Stereoselectivity (ee)", "setting": "[2]; [8]", "value": "93.6 (R)"}, {"measurement": "Stereoselectivity (ee)", "setting": "[2]; [9]", "value": "91.9 (R)"}, {"measurement": "Stereoselectivity (ee)", "setting": "[2]; [10]", "value": "90.7 (R)"}, {"measurement": "ee", "setting": "[2]; substrate p-nitrobenzophenone, (S)", "value": 99.1, "unit": "%"}, {"measurement": "specific activity", "setting": "[3]; substrate [drawing 1]", "value": 0.84, "unit": "U/mg"}, {"measurement": "specific activity", "setting": "[3]; substrate [drawing 2]", "value": 0.52, "unit": "U/mg"}, {"measurement": "specific activity", "setting": "[3]; substrate [drawing 3]", "value": 0.32, "unit": "U/mg"}, {"measurement": "specific activity", "setting": "[3]; substrate [drawing 4]", "value": 7.50, "unit": "U/mg"}, {"measurement": "specific activity", "setting": "[3]; substrate [drawing 5]", "value": 7.48, "unit": "U/mg"}, {"measurement": "specific activity", "setting": "[3]; [11]", "value": 10.02, "unit": "U/mg"}, {"measurement": "specific activity", "setting": "[3]; substrate [drawing 7]", "value": 17.10, "unit": "U/mg"}, {"measurement": "specific activity", "setting": "[3]; substrate [drawing 8]", "value": 13.21, "unit": "U/mg"}, {"measurement": "specific activity", "setting": "[3]; [12]", "value": 5.80, "unit": "U/mg"}, {"measurement": "Stereoselectivity (ee)", "setting": "[4]; substrate [drawing 13]", "value": "51.5 (R)"}, {"measurement": "Stereoselectivity (ee)", "setting": "[4]; [13]", "value": "57.1 (S)"}, {"measurement": "Stereoselectivity (ee)", "setting": "[4]; substrate [drawing 15]", "value": "57.1 (R)"}, {"measurement": "Stereoselectivity (ee)", "setting": "[4]; substrate [drawing 18]", "value": "99.1 (S)"}, {"measurement": "configuration of product / stereoselectivity in words", "setting": "[5]", "value": "inversion from the R configuration to the S configuration; also recorded: (S)-CPMA"}, {"measurement": "e.e.", "setting": "[5]", "value": "43.6 (S)"}]}
